Tests used:
[1] = system: HeLa Kyoto; assay: solubility in G1/S (NP-40 vs SDS abundance) (log2 ratio); higher = more soluble; details: cell cycle stage: G1/S
[2] = system: HeLa Kyoto; assay: thermal stability score vs G1/S (z-score of summed log2 fold changes over temperatures); higher = more thermally stable than in G1/S
[3] = system: HeLa Kyoto; assay: solubility change mitosis vs G1/S (difference of NP-40 vs SDS log2 ratios) (log2 ratio difference); higher = more soluble in mitosis
[4] = system: HeLa Kyoto; assay: melting temperature (median over replicates), in situ; higher = more thermally stable
[5] = cell cycle stage: early G1 (4.5 h after nocodazole release)
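For melting temperature (median over replicates), in situ in this document: HeLa Kyoto cells synchronized by double thymidine or nocodazole block, proteins quantified by TMT10plex mass spectrometry, three independent biological replicates.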
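For solubility change mitosis vs G1/S (difference of NP-40 vs SDS log2 ratios) in this document: synchronized HeLa Kyoto cells (double thymidine block for G1/S, nocodazole release for mitosis), protein amounts in NP-40 versus SDS lysates quantified by mass spectrometry, three biological replicates.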
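For solubility in G1/S (NP-40 vs SDS abundance) in this document: HeLa Kyoto cells arrested at G1/S by double thymidine block, proteins quantified by TMT10plex mass spectrometry in mild NP-40 versus SDS extracts, three biological replicates.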
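For thermal stability score vs G1/S (z-score of summed log2 fold changes over temperatures) in this document: synchronized HeLa Kyoto cells, proteins quantified by TMT10plex mass spectrometry, three biological replicates, mitosis taken 0.5 h after nocodazole release, G1/S directly after double thymidine block.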

Chain of WNK2 (chain, as listed by the source): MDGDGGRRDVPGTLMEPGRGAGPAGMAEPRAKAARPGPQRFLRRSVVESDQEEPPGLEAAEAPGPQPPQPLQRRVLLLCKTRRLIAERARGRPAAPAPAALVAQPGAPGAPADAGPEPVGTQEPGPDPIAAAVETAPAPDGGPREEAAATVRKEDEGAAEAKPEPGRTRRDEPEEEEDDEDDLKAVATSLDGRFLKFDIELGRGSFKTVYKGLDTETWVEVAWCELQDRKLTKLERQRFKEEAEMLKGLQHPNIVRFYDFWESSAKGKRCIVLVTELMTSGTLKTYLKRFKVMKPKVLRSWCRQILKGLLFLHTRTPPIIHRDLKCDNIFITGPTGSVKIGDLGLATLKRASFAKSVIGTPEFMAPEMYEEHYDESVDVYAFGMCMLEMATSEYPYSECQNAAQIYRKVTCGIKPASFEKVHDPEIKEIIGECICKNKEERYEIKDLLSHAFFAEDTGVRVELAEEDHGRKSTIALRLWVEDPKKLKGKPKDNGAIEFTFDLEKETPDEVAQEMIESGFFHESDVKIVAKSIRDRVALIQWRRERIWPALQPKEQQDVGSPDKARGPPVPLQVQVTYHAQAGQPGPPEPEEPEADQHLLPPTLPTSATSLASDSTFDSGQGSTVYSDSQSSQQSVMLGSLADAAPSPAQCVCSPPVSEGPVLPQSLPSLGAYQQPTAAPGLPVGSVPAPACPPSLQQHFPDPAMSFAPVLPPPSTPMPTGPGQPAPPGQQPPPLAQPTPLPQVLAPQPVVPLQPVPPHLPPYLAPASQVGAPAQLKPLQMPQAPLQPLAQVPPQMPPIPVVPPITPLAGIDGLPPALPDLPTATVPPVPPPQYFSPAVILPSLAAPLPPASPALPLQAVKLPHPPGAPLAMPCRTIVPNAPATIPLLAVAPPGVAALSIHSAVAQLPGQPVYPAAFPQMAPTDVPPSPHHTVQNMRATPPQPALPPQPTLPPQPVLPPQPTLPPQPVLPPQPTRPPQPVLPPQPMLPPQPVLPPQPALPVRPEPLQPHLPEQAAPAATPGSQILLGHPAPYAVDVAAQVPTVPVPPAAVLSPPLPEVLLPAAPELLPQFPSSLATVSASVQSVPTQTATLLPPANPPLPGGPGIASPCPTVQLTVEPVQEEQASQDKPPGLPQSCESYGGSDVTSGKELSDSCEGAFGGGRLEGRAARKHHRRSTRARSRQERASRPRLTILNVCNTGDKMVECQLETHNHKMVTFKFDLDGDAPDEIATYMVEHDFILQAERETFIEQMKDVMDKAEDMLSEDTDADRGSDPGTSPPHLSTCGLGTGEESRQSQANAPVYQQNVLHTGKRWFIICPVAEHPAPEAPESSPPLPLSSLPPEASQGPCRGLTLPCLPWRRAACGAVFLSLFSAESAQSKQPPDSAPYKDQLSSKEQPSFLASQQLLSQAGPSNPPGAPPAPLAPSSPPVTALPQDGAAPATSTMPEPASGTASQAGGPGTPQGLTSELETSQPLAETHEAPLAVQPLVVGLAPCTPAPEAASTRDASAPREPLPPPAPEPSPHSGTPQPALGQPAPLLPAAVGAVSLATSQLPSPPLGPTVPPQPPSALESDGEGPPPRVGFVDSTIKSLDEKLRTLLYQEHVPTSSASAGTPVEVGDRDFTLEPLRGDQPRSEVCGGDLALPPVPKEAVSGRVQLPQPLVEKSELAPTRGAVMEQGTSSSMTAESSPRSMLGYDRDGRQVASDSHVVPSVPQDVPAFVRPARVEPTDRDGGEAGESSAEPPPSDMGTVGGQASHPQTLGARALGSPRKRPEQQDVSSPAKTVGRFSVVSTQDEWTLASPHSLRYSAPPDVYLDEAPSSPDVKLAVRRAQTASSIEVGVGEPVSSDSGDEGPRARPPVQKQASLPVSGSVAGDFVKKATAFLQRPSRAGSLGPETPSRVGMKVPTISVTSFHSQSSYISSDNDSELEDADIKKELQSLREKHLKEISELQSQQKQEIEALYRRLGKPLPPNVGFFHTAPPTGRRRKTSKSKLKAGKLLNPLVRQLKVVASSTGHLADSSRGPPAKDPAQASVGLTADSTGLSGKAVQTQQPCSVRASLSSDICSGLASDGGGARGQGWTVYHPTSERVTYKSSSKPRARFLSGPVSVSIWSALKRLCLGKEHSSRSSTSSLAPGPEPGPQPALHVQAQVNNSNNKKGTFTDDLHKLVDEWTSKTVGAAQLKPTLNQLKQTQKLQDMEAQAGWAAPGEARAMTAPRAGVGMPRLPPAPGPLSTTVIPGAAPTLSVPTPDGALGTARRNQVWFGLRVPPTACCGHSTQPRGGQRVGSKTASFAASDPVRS
Chain of UNC13B (chain, as listed by the source): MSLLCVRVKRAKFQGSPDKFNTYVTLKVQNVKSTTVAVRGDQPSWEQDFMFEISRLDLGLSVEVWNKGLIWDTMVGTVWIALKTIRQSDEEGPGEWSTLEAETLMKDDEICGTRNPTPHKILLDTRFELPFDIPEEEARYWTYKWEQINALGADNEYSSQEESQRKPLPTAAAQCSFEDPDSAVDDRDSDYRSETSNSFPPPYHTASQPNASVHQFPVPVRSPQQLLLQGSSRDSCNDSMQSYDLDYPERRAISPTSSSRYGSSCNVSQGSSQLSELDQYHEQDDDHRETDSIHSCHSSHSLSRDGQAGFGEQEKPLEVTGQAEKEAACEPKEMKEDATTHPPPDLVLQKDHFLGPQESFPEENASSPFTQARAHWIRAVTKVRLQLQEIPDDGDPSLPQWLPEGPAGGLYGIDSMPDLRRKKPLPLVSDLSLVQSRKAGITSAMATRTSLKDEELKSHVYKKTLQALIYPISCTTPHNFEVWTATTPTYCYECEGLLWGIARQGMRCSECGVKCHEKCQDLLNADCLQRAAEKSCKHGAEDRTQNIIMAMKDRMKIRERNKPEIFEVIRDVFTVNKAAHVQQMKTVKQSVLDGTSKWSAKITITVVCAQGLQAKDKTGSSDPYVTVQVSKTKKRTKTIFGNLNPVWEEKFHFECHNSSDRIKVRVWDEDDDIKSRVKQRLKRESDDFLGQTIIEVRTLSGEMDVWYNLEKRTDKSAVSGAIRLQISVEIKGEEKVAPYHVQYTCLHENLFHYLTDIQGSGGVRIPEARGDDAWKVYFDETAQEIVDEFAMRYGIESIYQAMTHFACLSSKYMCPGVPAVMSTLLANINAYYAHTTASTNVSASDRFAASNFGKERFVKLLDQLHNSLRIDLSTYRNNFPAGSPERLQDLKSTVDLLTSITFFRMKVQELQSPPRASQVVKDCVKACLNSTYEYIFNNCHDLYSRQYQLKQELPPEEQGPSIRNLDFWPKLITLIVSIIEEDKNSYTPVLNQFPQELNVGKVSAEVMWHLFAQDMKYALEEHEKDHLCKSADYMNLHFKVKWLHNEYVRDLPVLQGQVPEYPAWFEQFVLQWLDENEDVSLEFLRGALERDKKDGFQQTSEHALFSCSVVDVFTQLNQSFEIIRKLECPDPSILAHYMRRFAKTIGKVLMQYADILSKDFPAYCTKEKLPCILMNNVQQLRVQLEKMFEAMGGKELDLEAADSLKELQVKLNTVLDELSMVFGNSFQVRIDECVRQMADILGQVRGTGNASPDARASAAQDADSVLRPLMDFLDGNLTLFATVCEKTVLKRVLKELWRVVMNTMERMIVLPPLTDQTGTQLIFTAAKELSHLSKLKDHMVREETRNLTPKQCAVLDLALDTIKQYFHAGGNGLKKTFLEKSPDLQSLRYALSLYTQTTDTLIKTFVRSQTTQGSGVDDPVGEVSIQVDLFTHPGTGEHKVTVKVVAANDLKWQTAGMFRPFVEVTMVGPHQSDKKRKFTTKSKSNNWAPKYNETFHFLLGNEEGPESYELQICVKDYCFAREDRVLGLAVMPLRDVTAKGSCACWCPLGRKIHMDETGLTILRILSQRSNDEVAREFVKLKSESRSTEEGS
Chain of NFYA (chain, as listed by the source): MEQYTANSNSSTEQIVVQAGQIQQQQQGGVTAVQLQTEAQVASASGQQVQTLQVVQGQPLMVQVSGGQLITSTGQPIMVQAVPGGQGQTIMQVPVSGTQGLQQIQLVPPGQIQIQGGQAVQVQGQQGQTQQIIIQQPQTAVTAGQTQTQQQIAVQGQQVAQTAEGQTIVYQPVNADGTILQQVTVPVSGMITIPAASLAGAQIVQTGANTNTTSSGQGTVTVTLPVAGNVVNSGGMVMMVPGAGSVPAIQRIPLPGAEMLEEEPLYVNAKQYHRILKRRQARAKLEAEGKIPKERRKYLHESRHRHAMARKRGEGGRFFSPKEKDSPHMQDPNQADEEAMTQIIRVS
Chain of TGOLN2 (chain, as listed by the source): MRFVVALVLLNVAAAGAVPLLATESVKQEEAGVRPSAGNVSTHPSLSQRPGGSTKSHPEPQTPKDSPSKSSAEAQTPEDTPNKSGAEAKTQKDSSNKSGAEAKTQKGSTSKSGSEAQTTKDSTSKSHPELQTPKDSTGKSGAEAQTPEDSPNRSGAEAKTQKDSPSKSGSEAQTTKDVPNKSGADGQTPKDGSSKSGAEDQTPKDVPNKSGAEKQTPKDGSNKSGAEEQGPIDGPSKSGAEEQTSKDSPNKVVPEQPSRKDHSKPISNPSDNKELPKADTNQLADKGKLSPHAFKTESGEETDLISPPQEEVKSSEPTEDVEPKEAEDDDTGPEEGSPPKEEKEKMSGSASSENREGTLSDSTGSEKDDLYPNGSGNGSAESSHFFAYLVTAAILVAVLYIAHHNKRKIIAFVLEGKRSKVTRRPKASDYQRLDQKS
Chain of ZNF593 (chain, as listed by the source): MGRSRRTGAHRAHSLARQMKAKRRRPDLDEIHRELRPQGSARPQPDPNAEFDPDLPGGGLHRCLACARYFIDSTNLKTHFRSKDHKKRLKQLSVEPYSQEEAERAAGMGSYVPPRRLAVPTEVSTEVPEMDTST

| Substance | solubility in G1/S (log2) [1] | thermal stability score [2, 5] | thermal stability score ([2]; cell cycle stage: mitosis) | solubility change mitosis (log2) [3] | melting temperature ([4]; cell cycle stage: G1/S) | melting temperature ([4]; cell cycle stage: mitosis) |
| --- | --- | --- | --- | --- | --- | --- |
| ABCA2 | 0.0925 | 0.174 | -0.253 | -0.105 |  |  |
| APOBEC3B | -0.745 | 0.584 | 1.24 | 0.177 |  |  |
| CELSR1 | -0.413 | -1.99 | -1.59 | -0.0398 |  |  |
| EML1 | -0.0717 | 0.361 | 0.0361 | -0.126 |  |  |
| KIAA0430 | -0.0573 | -0.446 | -0.799 | 0.0372 |  |  |
| MSTASSSSSSSSSQTPHPPSQRMRRSAAGSPPAVAAAGSGNGAGGGGGVGCAPAAGAGRLLQPIRATVPYQLLRGSQHSPTRPPVAAAAASLGSLPGPGAARGPSPSSPTPPAAAAPAEQAPRAKGRPRRSPESHRRSSSPERRSPGSPVCRADKAKSQQVRTSSTIRRTSSLDTITGPYLTGQWPRDPHVHYPSCMKDKATQTPSCWAEEGAEKRSHQRSASWGSADQLKEQIAKLRQQLQRSKQSSRHSKEKDRQSPLHGNHITISHTQATGSRSVPMPLSNISVPKSSVSRVPCNVEGISPELEKVFIKENNGKEEVSKPLDIPDGRRAPLPAHYRSSSTRSIDTQTPSVQERSSSCSSHSPCVSPFCPPESQDGSPCSTEDLLYDRDKDSGSSSPLPKYASSPKPNNSYMFKREPPEGCERVKVFEEMASRQPISAPLFSCPDKNKVNFIPTGSAFCPVKLLGPLLPASDLMLKNSPNSGQSSALATLTVEQLSSRVSFTSLSDDTSTAGSMEASVQQPSQQQQLLQELQGEDHISAQNYVII [GLCCI1] | 0.4 |  |  | -0.0403 | 53.7 °C | 54.4 °C |
| MSVFGKLFGAGGGKAGKGGPTPQEAIQRLRDTEEMLSKKQEFLEKKIEQELTAAKKHGTKNKRAALQALKRKKRYEKQLAQIDGTLSTIEFQREALENANTNTEVLKNMGYAAKAMKAAHDNMDIDKVDELMQDIADQQELAEEISTAISKPVGFGEEFDEDELMAELEELEQEELDKNLLEISGPETVPLPNVPSIALPSKPAKKKEEEDDDMKELENWAGSM [CHMP4B] | 0.507 |  |  | 0.775 | 55 °C | 52.5 °C |
| MTSPEIASLSWGQMKVKGSNTTYKDCKVWPGGSRTWDWRETGTEHSPGVQPADVKEVVEKGVQTLVIGRGMSEALKVPSSTVEYLKKHGIDVRVLQTEQAVKEYNALVAQGVRVGGVFHSTC [AAMDC] | 0.355 |  |  | 0.0391 | 53.4 °C | 52.5 °C |
| MTTAARPTFEPARGGRGKGEGDLSQLSKQYSSRDLPSHTKIKYRQTTQDAPEEVRNRDFRRELEERERAAAREKNRDRPTREHTTSSSVSKKPRLDQIPAANLDADDPLTDEEDEDFEEESDDDDTAALLAELEKIKKERAEEQARKEQEQKAEEERIRMENILSGNPLLNLTGPSQPQANFKVKRRWDDDVVFKNCAKGVDDQKKDKRFVNDTLRSEFHKKFMEKYIK [CWC15] | 0.0823 |  |  | 0.681 | 55.4 °C | 55.1 °C |
| MWPPCGTLRTLALARSRGARACSGDGGVSYTQGQSPEPRTREYFYYVDHQGQLFLDDSKMKNFITCFKDPQFLVTFFSRLRPNRSGRYEAAFPFLSPCGRERNFLRCEDRPVVFTHLLTADHGPPRLSYCGGGEALAVPFEPARLLPLAANGRLYHPAPERAGGVGLVRSALAFELSACFEYGPGAPALPSHVRWQGRRLALTMDLAPLLLAARSP [C8ORF82] | 0.265 |  |  | 0.0375 | 52.4 °C | 54.3 °C |
| MYQDYPGNFDTSSRGSSGSPAHAESYSSGGGGQQKFRVDMPGSGSAFIPTINAITTSQDLQWMVQPTVITSMSNPYPRSHPYSPLPGLASVPGHMALPRPGVIKTIGTTVGRRRRDEQLSPEEEEKRRIRRERNKLAAAKCRNRRRELTEKLQAETEELEEEKSGLQKEIAELQKEKEKLEFMLVAHGPVCKISPEERRSPPAPGLQPMRSGGGSVGAVVVKQEPLEEDSPSSSSAGLDKAQRSVIKPISIAGGFYGEEPLHTPIVVTSTPAVTPGTSNLVFTYPSVLEQESPASPSESCSKAHRRSSSSGDQSSDSLNSPTLLAL [FOSL2] | 0.191 |  |  | 0.106 | 53.9 °C | 55.1 °C |
| NBEAL2 | -0.103 |  |  | -0.0719 | 52 °C |  |
| NFYA | -0.0285 |  |  | -0.0439 | 58 °C | 58.1 °C |
| RPL22L1 | -0.564 |  |  | 0.209 | 53.8 °C | 52 °C |
| SRCAP | -0.24 |  |  | 0.0318 | 48.8 °C | 50.3 °C |
| TGOLN2 | -0.315 |  |  | 0.881 | 59.5 °C | 53.9 °C |
| TOPBP1 | -0.153 |  |  | -0.0346 | 46.7 °C | 49.1 °C |
| UNC13B | -0.113 |  |  | -0.114 | 50.3 °C | 49.4 °C |
| WNK2 | 0.2 |  |  | -0.0197 |  | 52.6 °C |
| ZNF593 | -0.278 |  |  | 1.09 | 57.9 °C | 51.7 °C |

Source: the supplement of paper PMC5998384
